# Starred links: 1 amine or outer side, 2 acyl side, 3 side chain; linkers in the order of their positions; H or OH if unused. Positions of bridges follow the written chain, without caps; N, C: chain ends. Non-standard residues stand in square brackets, D forms with d. No end group written: not given here. *: point of attachment. KCOmeglumine = N6-(methyl-((2S,3R,4R,5R)-2,3,4,5,6-pentahydroxyhexyl)carbamoyl)-L-lysine, CN(C[C@H](O)[C@@H](O)[C@H](O)[C@H](O)CO)C(=O)NCCCC[C@H](N[*:1])C(=O)[*:2]; KCOpipzaa = N6-(4-(carboxymethyl)piperazine-1-carbonyl)-L-lysine, O=C(NCCCC[C@H](N[*:1])C(=O)[*:2])N1CCN(CC(=O)[*:3])CC1; CH3O(CH2CH2O)7C2H4CO = COCCOCCOCCOCCOCCOCCOCCOCCC(=O)*; Phe(4-guanidino) = N=C(N)Nc1ccc(C[C@H](N)C(=O)O)cc1; Trp(6-aza) = N[C@@H](Cc1c[nH]c2cnccc12)C(=O)O; 1Nal = N[C@@H](Cc1cccc2ccccc12)C(=O)O; Gly(NCH2CH2Ph) = O=C(O)CNCCc1ccccc1; 3Pal = N[C@@H](Cc1cccnc1)C(=O)O; 4Pal = N[C@@H](Cc1ccncc1)C(=O)O
# B1: TGFb1_022 (peptide)
# peptide: {CH2CO}-F[1Nal]VVNV[4Pal]D[KCOpipzaa][Gly(NCH2CH2Ph)]V[1Nal]YH[KCOpipzaa]CG-NH2
# modifications: thioether N-16
# SMILES: CC(C)[C@@H]1NC(=O)CN(CCc2ccccc2)C(=O)[C@H](CCCCNC(=O)N2CCN(CC(=O)O)CC2)NC(=O)[C@H](CC(=O)O)NC(=O)[C@H](Cc2ccncc2)NC(=O)[C@H](C(C)C)NC(=O)[C@H](CC(N)=O)NC(=O)[C@H](C(C)C)NC(=O)[C@H](C(C)C)NC(=O)[C@H](Cc2cccc3ccccc23)NC(=O)[C@H](Cc2ccccc2)NC(=O)CSC[C@@H](C(=O)NCC(N)=O)NC(=O)[C@H](CCCCNC(=O)N2CCN(CC(=O)O)CC2)NC(=O)[C@H](Cc2c[nH]cn2)NC(=O)[C@H](Cc2ccc(O)cc2)NC(=O)[C@H](Cc2cccc3ccccc23)NC1=O
# B2: TGFb1_020 (peptide)
# peptide: {CH2CO}-F[1Nal]V[KCOmeglumine]NV[4Pal]DD[Gly(NCH2CH2Ph)]V[1Nal]YH[KCOpipzaa]CG-NH2
# modifications: thioether N-16
# SMILES: CC(C)[C@@H]1NC(=O)CN(CCc2ccccc2)C(=O)[C@H](CC(=O)O)NC(=O)[C@H](CC(=O)O)NC(=O)[C@H](Cc2ccncc2)NC(=O)[C@H](C(C)C)NC(=O)[C@H](CC(N)=O)NC(=O)[C@H](CCCCNC(=O)N(C)C[C@H](O)[C@@H](O)[C@H](O)[C@H](O)CO)NC(=O)[C@H](C(C)C)NC(=O)[C@H](Cc2cccc3ccccc23)NC(=O)[C@H](Cc2ccccc2)NC(=O)CSC[C@@H](C(=O)NCC(N)=O)NC(=O)[C@H](CCCCNC(=O)N2CCN(CC(=O)O)CC2)NC(=O)[C@H](Cc2c[nH]cn2)NC(=O)[C@H](Cc2ccc(O)cc2)NC(=O)[C@H](Cc2cccc3ccccc23)NC1=O
# B3: TGFb1_030 (peptide)
# peptide: {CH2CO}-F[1Nal]V[KCOmeglumine]NV[4Pal]D[KCOmeglumine][Gly(NCH2CH2Ph)]V[1Nal]YHECG-NH2
# modifications: thioether N-16
# SMILES: CC(C)[C@@H]1NC(=O)CN(CCc2ccccc2)C(=O)[C@H](CCCCNC(=O)N(C)C[C@H](O)[C@@H](O)[C@H](O)[C@H](O)CO)NC(=O)[C@H](CC(=O)O)NC(=O)[C@H](Cc2ccncc2)NC(=O)[C@H](C(C)C)NC(=O)[C@H](CC(N)=O)NC(=O)[C@H](CCCCNC(=O)N(C)C[C@H](O)[C@@H](O)[C@H](O)[C@H](O)CO)NC(=O)[C@H](C(C)C)NC(=O)[C@H](Cc2cccc3ccccc23)NC(=O)[C@H](Cc2ccccc2)NC(=O)CSC[C@@H](C(=O)NCC(N)=O)NC(=O)[C@H](CCC(=O)O)NC(=O)[C@H](Cc2c[nH]cn2)NC(=O)[C@H](Cc2ccc(O)cc2)NC(=O)[C@H](Cc2cccc3ccccc23)NC1=O
# B4: TGFb1_019 (peptide)
# peptide: {CH2CO}-F[1Nal]V[KCOpipzaa]NV[4Pal]DD[Gly(NCH2CH2Ph)]V[1Nal]YH[KCOpipzaa]CG-NH2
# modifications: thioether N-16
# SMILES: CC(C)[C@@H]1NC(=O)CN(CCc2ccccc2)C(=O)[C@H](CC(=O)O)NC(=O)[C@H](CC(=O)O)NC(=O)[C@H](Cc2ccncc2)NC(=O)[C@H](C(C)C)NC(=O)[C@H](CC(N)=O)NC(=O)[C@H](CCCCNC(=O)N2CCN(CC(=O)O)CC2)NC(=O)[C@H](C(C)C)NC(=O)[C@H](Cc2cccc3ccccc23)NC(=O)[C@H](Cc2ccccc2)NC(=O)CSC[C@@H](C(=O)NCC(N)=O)NC(=O)[C@H](CCCCNC(=O)N2CCN(CC(=O)O)CC2)NC(=O)[C@H](Cc2c[nH]cn2)NC(=O)[C@H](Cc2ccc(O)cc2)NC(=O)[C@H](Cc2cccc3ccccc23)NC1=O
# B5: TGFb1_031 (peptide)
# peptide: {CH2CO}-F[1Nal]VVNV[4Pal]DD[Gly(NCH2CH2Ph)]V[1Nal]YH[KCOpipzaa]CGK(CH3O(CH2CH2O)7C2H4CO)-NH2
# modifications: thioether N-16
# SMILES: COCCOCCOCCOCCOCCOCCOCCOCCC(=O)NCCCC[C@H](NC(=O)CNC(=O)[C@@H]1CSCC(=O)N[C@@H](Cc2ccccc2)C(=O)N[C@@H](Cc2cccc3ccccc23)C(=O)N[C@@H](C(C)C)C(=O)N[C@@H](C(C)C)C(=O)N[C@@H](CC(N)=O)C(=O)N[C@@H](C(C)C)C(=O)N[C@@H](Cc2ccncc2)C(=O)N[C@@H](CC(=O)O)C(=O)N[C@@H](CC(=O)O)C(=O)N(CCc2ccccc2)CC(=O)N[C@@H](C(C)C)C(=O)N[C@@H](Cc2cccc3ccccc23)C(=O)N[C@@H](Cc2ccc(O)cc2)C(=O)N[C@@H](Cc2c[nH]cn2)C(=O)N[C@@H](CCCCNC(=O)N2CCN(CC(=O)O)CC2)C(=O)N1)C(N)=O
# notes: cyclic peptide; linker G K(MePEG8c) at the C-terminus
# Molecular target: T1, recombinant human TGF-β1 (R&D systems) (human, UniProt P01137 279-390)
# Assay: cell-based or functional assay
# Conditions: not given
# T1 sequence (P01137 279-390 limits assumed): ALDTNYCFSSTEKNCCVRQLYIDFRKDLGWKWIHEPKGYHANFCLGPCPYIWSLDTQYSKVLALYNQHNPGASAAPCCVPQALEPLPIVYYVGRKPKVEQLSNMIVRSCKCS
Molecule,"SBE reporter % inhibition, peptide 0.062 nM [%]","SBE reporter % inhibition, peptide 0.185 nM [%]","SBE reporter % inhibition, peptide 0.56 nM [%]","SBE reporter % inhibition, peptide 1.7 nM [%]","SBE reporter % inhibition, peptide 5.0 nM [%]","SBE reporter % inhibition, peptide 15.0 nM [%]"
B1,6.49,20.8,53.8,85.2,97.1,99.5
B2,8.5,15.8,36.3,70.4,89.3,96.9
B3,10.9,14.3,29.9,52.5,80.8,95.2
B4,5.21,11.3,30.2,61.6,87.8,96.4

# Molecular target: T1, recombinant human TGF-β1 (R&D systems)
# Assay: cell-based or functional assay
# Conditions: not given
# Remark: another data set of the same source
Molecule,"SBE reporter % inhibition, peptide 0.062 nM [%]","SBE reporter % inhibition, peptide 0.185 nM [%]","SBE reporter % inhibition, peptide 0.56 nM [%]","SBE reporter % inhibition, peptide 1.7 nM [%]","SBE reporter % inhibition, peptide 5.0 nM [%]","SBE reporter % inhibition, peptide 15.0 nM [%]"
B5,9.29,20.1,51.9,84.9,96.7,99.1

# Molecular target: T2, recombinant human TGF-β1 (Homo sapiens, UniProt P01137)
# T2 construct: purchased R&D systems
# Assay: ELISA of HA-tagged peptides with TGF-β1 beads
# Format: binding
# Conditions: relative value with binding of peptide TGFb1_061 (SEQ ID NO: 62) to TGF-β1 set to 100%; HA-tagged peptides, TGF-β1 beads ELISA
# From the text: In this Example, ELISA was used to evaluate the binding between TGF-β1 and each of various peptides consisting of the amino acid sequences set forth in SEQ ID NOs: 34-69 synthesized in Examples 6 and 7. An HA-tag was attached to the G end of the C-terminal linker of the peptide consisting of the amino acid sequence set forth in SEQ ID NOs: 34-69. As used herein, the “HA-tag” means the amino acid sequence of PEG10[…] (SEQ ID NO: 70).
# The binding activity of each peptide to TGF-β1 was examined by ELISA using the peptide consisting of the amino acid sequence set forth in SEQ ID NOs: 34-69 having an HA-tag attached and TGF-β1 beads.
# Recombinant human TGF-β1 (R&D Systems) was immobilized on Dynabead M-270 Carboxylic Acid (Thermo fisher scientific) to prepare TGF-β1 beads. The immobilization reaction was performed using the Amine Coupling kit (DOJINDO LABORATORIES).
# TGF-β1 beads and each peptide having the HA-tag sequence attached at the C-terminus were reacted in PBS (PBS-T) containing 0.1% Tween 20 (NACALAI TESQUE, INC.) for 1 hour and then washed by PBS-T. To detect the peptide bound to the TGF-β1 beads, an anti-HA-tag mAb-HRP-DirecT (MBL) and the TGF-β1 beads were reacted in PBS-T containing 1% BSA for 30 min. After washing with PBST, a SureBlue TMB Microwell Peroxidase Substrate (Kirkegaard & Perry Laboratories) was added for coloration for 10 min. TMB stop solution (Kirkegaard & Perry Laboratories) was then added to stop the coloration reaction. An EnSpire (Perkin Elmer) was used to measure absorbance.
# Note that the binding activity was expressed as a relative value when the ability of binding the peptide TGFb1_061 (SEQ ID NO: 62) to TGF-β1 was set to 100%.
# T2 sequence (P01137 279-390 limits assumed): as above
row,Molecule,Activity of binding to TGF-β [%]
1,48 ({CH2CO}-F[1Nal]VVNVEDD[Gly(NCH2CH2Ph)]V[1Nal]YHVCG; thioether N-16; also: HA-tag) [compound 48],80
2,49 ({CH2CO}-F[1Nal]VVNVYDD[Gly(NCH2CH2Ph)]V[1Nal][4Pal]HVCG; thioether N-16; also: HA-tag) [compound 49],80
3,50 ({CH2CO}-F[1Nal]VVNVYDD[Gly(NCH2CH2Ph)]V[1Nal]YHQCG; thioether N-16; also: HA-tag) [compound 50],81
4,51 ({CH2CO}-F[1Nal]VKNVYDD[Gly(NCH2CH2Ph)]V[1Nal]YHVCG; thioether N-16; also: HA-tag) [compound 51],84
5,52 ({CH2CO}-F[Trp(6-aza)]VVNVYDD[Gly(NCH2CH2Ph)]V[1Nal]YHVCG; thioether N-16; also: HA-tag) [compound 52],85
6,53 ({CH2CO}-F[1Nal]VVNVYDDKV[1Nal]YHVCG; thioether N-16; also: HA-tag) [compound 53],86
7,54 ({CH2CO}-F[1Nal]VVNV[Phe(4-guanidino)]DD[Gly(NCH2CH2Ph)]V[1Nal]YHVCG; thioether N-16; also: HA-tag) [compound 54],87
8,55 ({CH2CO}-F[1Nal]VVNVYDD[Gly(NCH2CH2Ph)]V[1Nal]YHECG; thioether N-16; also: HA-tag) [compound 55],89
9,56 ({CH2CO}-FWVVNVYDD[Gly(NCH2CH2Ph)]V[1Nal]YHVCG; thioether N-16; also: HA-tag) [compound 56],90
10,57 ({CH2CO}-F[1Nal]VVNVQDD[Gly(NCH2CH2Ph)]V[1Nal]YHVCG; thioether N-16; also: HA-tag) [compound 57],90
11,58 ({CH2CO}-F[1Nal]VVNVYED[Gly(NCH2CH2Ph)]V[1Nal]YHVCG; thioether N-16; also: HA-tag) [compound 58],93
12,59 ({CH2CO}-F[1Nal]VVNVYDD[Gly(NCH2CH2Ph)]V[1Nal][3Pal]HVCG; thioether N-16; also: HA-tag) [compound 59],95
13,60 ({CH2CO}-F[1Nal]VVNVYDQ[Gly(NCH2CH2Ph)]V[1Nal]YHVCG; thioether N-16; also: HA-tag) [compound 60],95
14,61 ({CH2CO}-F[1Nal]VVNVYKD[Gly(NCH2CH2Ph)]V[1Nal]YHVCG; thioether N-16; also: HA-tag) [compound 61],98
15,62 ({CH2CO}-F[1Nal]VVNVYDD[Gly(NCH2CH2Ph)]V[1Nal]YHVCG; thioether N-16; also: HA-tag) [compound 62],100
16,63 ({CH2CO}-F[1Nal]VVNVKDD[Gly(NCH2CH2Ph)]V[1Nal]YHVCG; thioether N-16; also: HA-tag) [compound 63],102
17,64 ({CH2CO}-F[1Nal]VVNVYDK[Gly(NCH2CH2Ph)]V[1Nal]YHVCG; thioether N-16; also: HA-tag) [compound 64],102
